Biological target: T1, Kif4A-GFP (UniProt O95239 1-1232)
T1 sequence: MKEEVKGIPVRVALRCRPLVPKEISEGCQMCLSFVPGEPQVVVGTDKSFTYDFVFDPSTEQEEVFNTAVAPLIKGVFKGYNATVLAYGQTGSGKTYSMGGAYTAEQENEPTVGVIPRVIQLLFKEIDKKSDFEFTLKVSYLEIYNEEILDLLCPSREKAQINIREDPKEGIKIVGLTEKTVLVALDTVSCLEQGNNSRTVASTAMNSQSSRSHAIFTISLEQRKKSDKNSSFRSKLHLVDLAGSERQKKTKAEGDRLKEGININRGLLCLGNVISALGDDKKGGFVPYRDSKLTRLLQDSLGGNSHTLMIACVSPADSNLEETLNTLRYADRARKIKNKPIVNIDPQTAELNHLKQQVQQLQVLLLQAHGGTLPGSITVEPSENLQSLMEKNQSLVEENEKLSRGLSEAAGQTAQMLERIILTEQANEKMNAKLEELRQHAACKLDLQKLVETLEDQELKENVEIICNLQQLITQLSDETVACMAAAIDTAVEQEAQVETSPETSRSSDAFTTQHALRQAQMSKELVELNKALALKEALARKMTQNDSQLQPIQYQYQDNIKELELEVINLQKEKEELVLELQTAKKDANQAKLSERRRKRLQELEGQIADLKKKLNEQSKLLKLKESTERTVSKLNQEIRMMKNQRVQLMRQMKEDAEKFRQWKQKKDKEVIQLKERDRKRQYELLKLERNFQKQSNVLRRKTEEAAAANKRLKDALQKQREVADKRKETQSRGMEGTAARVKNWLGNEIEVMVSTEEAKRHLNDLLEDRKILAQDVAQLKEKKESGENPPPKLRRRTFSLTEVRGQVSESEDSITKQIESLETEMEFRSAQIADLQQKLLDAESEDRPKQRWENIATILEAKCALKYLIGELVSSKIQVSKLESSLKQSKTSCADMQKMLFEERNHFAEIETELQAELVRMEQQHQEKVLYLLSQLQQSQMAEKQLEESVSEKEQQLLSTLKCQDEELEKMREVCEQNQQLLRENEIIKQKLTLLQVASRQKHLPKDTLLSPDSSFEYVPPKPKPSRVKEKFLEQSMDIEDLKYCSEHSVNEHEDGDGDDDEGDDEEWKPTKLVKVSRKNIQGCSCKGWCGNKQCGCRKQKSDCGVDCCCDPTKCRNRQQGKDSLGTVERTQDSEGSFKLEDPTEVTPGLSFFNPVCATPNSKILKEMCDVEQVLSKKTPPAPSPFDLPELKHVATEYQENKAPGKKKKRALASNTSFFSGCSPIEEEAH
Experiment: BLI

B1: full-length PRC1 (Protein Regulator of Cytokinesis-1) (natural protein)
chain: MRRSEVLAEESIVCLQKALNHLREIWELIGIPEDQRLQRTEVVKKHIKELLDMMIAEEESLKERLIKSISVCQKELNTLCSELHVEPFQEEGETTILQLEKDLRTQVELMRKQKKERKQELKLLQEQDQELCEILCMPHYDIDSASVPSLEELNQFRQHVTTLRETKASRREEFVSIKRQIILCMEALDHTPDTSFERDVVCEDEDAFCLSLENIATLQKLLRQLEMQKSQNEAVCEGLRTQIRELWDRLQIPEEEREAVATIMSGSKAKVRKALQLEVDRLEELKMQNMKKVIEAIRVELVQYWDQCFYSQEQRQAFAPFCAEDYTESLLQLHDAEIVRLKNYYEVHKELFEGVQKWEETWRLFLEFERKASDPNRFTNRGGNLLKEEKQRAKLQKMLPKLEEELKARIELWEQEHSKAFMVNGQKFMEYVAEQWEMHRLEKERAKQERQLKNKKQTETEMLYGSAPRTPSKRRGLAPNTPGKARKLNTTTMSNATANSSIRPIFGGTVYHSPVSRLPPSGSKPVAASTCSGKKTPRTGRHGANKENLELNGSILSGGYPGSAPLQRNFSINSVASTYSEFAKDPSLSDSSTVGLQRELSKASKSDATSGILNSTNIQS
Kd: 12.5 ± 2.09 nM

— paper PMC8387365 (Nature chemical biology, 2021)
